Assay results: patent publication US20250042970A1 (AURINIA PHARMACEUTICALS, published 2025)

T1: FLAG-tagged recombinant human APRIL (human, UniProt O75888 105-250)
T1 construct: KINEXA ligand; also called huAPRIL
T1 sequence: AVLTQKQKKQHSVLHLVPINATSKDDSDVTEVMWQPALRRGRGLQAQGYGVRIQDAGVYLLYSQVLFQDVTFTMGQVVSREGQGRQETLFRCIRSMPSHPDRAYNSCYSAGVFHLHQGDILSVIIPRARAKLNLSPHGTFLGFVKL

T2: FLAG-tagged cynomolgous APRIL (cynomolgus monkey, UniProt A0ACM8R0G4 110-250 (rhesus entry))
T2 construct: FLAG-tagged, expressed with TPA signal peptide; also called cyAPRIL
T2 sequence: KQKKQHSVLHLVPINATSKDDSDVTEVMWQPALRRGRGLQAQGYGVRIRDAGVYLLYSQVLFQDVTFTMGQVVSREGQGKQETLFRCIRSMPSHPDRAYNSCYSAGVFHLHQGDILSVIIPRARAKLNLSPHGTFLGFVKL


Experiments:
[1] = target: T1, FLAG-tagged recombinant human APRIL; assay: KinExA
Protocol: (§1) Equilibrium measurements were performed using FLAG-tagged, recombinant huBAFF and huAPRIL ligands. Fixed ligand concentrations of human BAFF or human APRIL were incubated with serial dilutions of the variant BCMA ECD-Ig fusion polypeptides, and free ligand was detected in a KINEXA 3200 Instrument. variant BCMA ECD-Ig fusion polypeptides were first diluted in equilibration buffer (1×PBS, pH 7.4, 1 mg/ml BSA) to a range of concentrations from 10 nM to 100 fM. The linear portion of the dilution series was typically 2-fold. Ligands were diluted in equilibration buffer to fixed concentrations ranging from 5 to 20 pM and then incubated with the variant BCMA-Ig dilutions in total reaction volumes ranging from 4.5 to 15 ml. Samples were incubated at room temperature for 48-72 hours to reach equilibrium. For each data point, a fresh column of 850 μl of bead slurry coated with Variant BAv-238475-Ig was introduced into the KINEXA flow cell. Equilibrated samples ranging from 1 to 5 ml reaction volume were injected at a flow rate of 0.25 ml/min. […] The DyLight 649 fluorescent signal was detected using the red filter set (620/30 nanometer excitation filter, 670/40 nanometer emission filter, 645 nanometer dichroic filter) on the KinExA instrument and converted to a voltage signal that was directly proportional to the concentration of free ligand in the equilibrated sample.
(§2) Table 5 provides the selectivities of exemplary variant BCMA polypeptides with respect to BAFF and APRIL.

FLAG-tagged human BAFF [2] = target: T3, FLAG-tagged human BAFF (human, UniProt Q9Y275 134-285, limits assumed); assay: KinExA
T3 construct: used in BIACORE (Ex. 9) and KINEXA (Ex. 11); also called huBAFF
Protocol: as §1, §2

[3] = target: T2, FLAG-tagged cynomolgous APRIL; assay: BIACORE SPR
Source text: (§3) The standard kinetic assay measures binding kinetics of trimeric ligand (e.g., human BAFF, cynomolgus monkey APRIL, mouse BAFF, or mouse APRIL) coated on sensor chips and dimeric analytes (e.g., variant BCMA-Ig fusion proteins) in the mobile phase. […] For human BAFF, cynomolgus monkey APRIL, and mouse APRIL measurements, mouse monoclonal antibody (IgG1) anti-FLAG M2 (Sigma Aldrich, Cat. No. F1804) was immobilized on CM3 sensor chips (GE Healthcare, Cat. No. BR-1005-41) according to the manufacturer's protocol. Antibody was diluted to 30 μg/ml in immobilization buffer (10 mM pH 5±0.20; GE Healthcare; GE Healthcare, Catalog No. BR-1003-51). […] Unreacted sites were quenched with 35 μl of 1M ethanolamine-HCl, pH 8.5 (GE Healthcare, GE Healthcare, Cat. No. BR-1000-50). This procedure typically yielded 3,000-4,000 response units (RU) of coupled antibody.
(§4) The fusion polypeptides were diluted in HBS-EP buffer and flowed over ligand-coated sensor chips. The variant BCMA-Ig and surrogate control fusion proteins were injected at three concentrations (1.5 nM, 15 nM, and 150 nM at 30 μl/min for 2 minutes per association phase) in a single binding cycle, followed by a 20 minute incubation with HBS-EP buffer containing no protein at the same flow rate. A similar protocol was followed for Z-TACI-Ig, except that the injections were at 4.5 nM, 45 nM, and 450 nM.
(§5) The analyses described above were performed on protein preparations of representative variant BCMA ECD-Ig fusion polypeptides, as well as the Z-TACI-Ig and [S40G]huBCMA ECD-Ig control fusion polypeptides, and the data is presented in Table 1.

FLAG-tagged human BAFF [4] = target: T3, FLAG-tagged human BAFF; assay: BIACORE SPR
Source text: as §3, §4, §5

[5] = target: T1, FLAG-tagged recombinant human APRIL; assay: KinExA; remark: listed apart in the source
Protocol: as §1
(§6) The standard kinetic exclusion assays and data analyses described above were performed on protein preparations of various variant BCMA ECD-Ig fusion polypeptides, as well as Z-TACI-Ig and [S40G]huBCMA ECD-Ig fusion polypeptides. FIG. 8A, FIG. 8B, and Table 4 summarize the binding data for representative variant BCMA ECD-Ig polypeptides and controls in molar concentrations of huBAFF or huAPRIL determined by KINEXA binding assays.

FLAG-tagged human BAFF [6] = target: T3, FLAG-tagged human BAFF; assay: KinExA; remark: listed apart in the source
Protocol: as §1, §6

[7] = target: T2, FLAG-tagged cynomolgous APRIL; assay: BIACORE SPR; remark: listed apart in the source
Protocol: (§7) For human BAFF, cynomolgus monkey APRIL, and mouse APRIL measurements, mouse monoclonal antibody (IgG1) anti-FLAG M2 (Sigma Aldrich, Cat. No. F1804) was immobilized on CM3 sensor chips (GE Healthcare, Cat. No. BR-1005-41) according to the manufacturer's protocol. Antibody was diluted to 30 μg/ml in immobilization buffer (10 mM pH 5±0.20; GE Healthcare; GE Healthcare, Catalog No. BR-1003-51). […] Unreacted sites were quenched with 35 μl of 1M ethanolamine-HCl, pH 8.5 (GE Healthcare, GE Healthcare, Cat. No. BR-1000-50). This procedure typically yielded 3,000-4,000 response units (RU) of coupled antibody.
as §4
(§8) Sequence optimization involved generating revertants from the variant BCMA ECD-Ig molecules using standard site-directed mutagenesis methods such as by SOEing as described herein above. Single as well as multiple revertants from twelve different variant-BCMA-pIg18 were generated, cloned in the pcDNA3.1 vector (Life Technologies, as described in Example 6), expressed and purified as described in Examples 6-8. The resulting proteins were assayed for their binding characteristics using Surface Plasmon Resonance as described in Example 9.

FLAG-tagged human BAFF [8] = target: T3, FLAG-tagged human BAFF; assay: BIACORE SPR; remark: listed apart in the source
Protocol: as §7, §4, §8

Selectivity for huAPRIL (KD BAFF/KD APRIL) [1] [ratio] | Selectivity for huBAFF (KD APRIL/KD BAFF) (FLAG-tagged human BAFF [2]) [ratio] | fold improvement KD vs control [3] [fold] | fold improvement KD vs control (FLAG-tagged human BAFF [4]) [fold] | fold improvement over control [5] [fold] | fold improvement over control (FLAG-tagged human BAFF [6]) [fold] | fold improvement over control [7] [fold] | fold improvement over control (FLAG-tagged human BAFF [8]) [fold] | Binder
1.7 | 0.6 | 1.1 | 24.6 | 0.47 | 400 | – | – | Variant BAv3-10-Ig (Fc fusion, human, domain: Fc; also called Variant 3-10-Ig; BAv3-10-PIg18) AGQCSQNEYFDRLIRACIPCQLRCSSNTPPLTCQRYCNAGVTNSVKGTNAERKSSVECPPSPAPPVAGPSVFLFPPKPKDTLMISRTPEVTCVVVDVSHEDPEVQFNWYVDGVEVHNAKTKPREEQFNSTFRVVSVLTVVHQDWLNGKEYKCKVSNKGLPAPIEKTISKTKGQPREPQVYTLPPSREEMTKNQVSLTCLVKGFYPSDISVEWESNGQPENNYKTTPPMLDSDGSFFLYSKLTVDKSRWQQGNVFSCSVMHEALHNHYTQKSLSLSPGK
2.1 | 0.47 | 0.7 | 14.8 | 0.8 | 533 | – | – | Variant BAv9-1-Ig (Fc fusion, human, domain: Fc; also called Variant 9-1-Ig; BAv9-1-pIg18) AGQCSQNEYFDHLIRACIPCQLRCSSNTPPLTCQRYCNAGVTNSVKGTNAERKSSVECPPSPAPPVAGPSVFLFPPKPKDTLMISRTPEVTCVVVDVSHEDPEVQFNWYVDGVEVHNAKTKPREEQFNSTFRVVSVLTVVHQDWLNGKEYKCKVSNKGLPAPIEKTISKTKGQPREPQVYTLPPSREEMTKNQVSLTCLVKGFYPSDISVEWESNGQPENNYKTTPPMLDSDGSFFLYSKLTVDKSRWQQGNVFSCSVMHEALHNHYTQKSLSLSPGK
3.56 | 0.3 | 1.5 | 9.8 | 0.68 | 231 | – | – | Variant BAv1-12-Ig (Fc fusion, human, domain: Fc; also called Variant 1-12-Ig) AGQCSQNEYFDRLVNACIPCQLRCSSNTPPLTCQRYCNAGVTNSVKGTNAERKSSVECPPSPAPPVAGPSVFLFPPKPKDTLMISRTPEVTCVVVDVSHEDPEVQFNWYVDGVEVHNAKTKPREEQFNSTFRVVSVLTVVHQDWLNGKEYKCKVSNKGLPAPIEKTISKTKGQPREPQVYTLPPSREEMTKNQVSLTCLVKGFYPSDISVEWESNGQPENNYKTTPPMLDSDGSFFLYSKLTVDKSRWQQGNVFSCSVMHEALHNHYTQKSLSLSPGK
134 | 0.0075 | 0.7 | 12.6 | 7.1 | 75.3 | – | – | Variant BAv8-9-Ig (Fc fusion, human, domain: Fc; also called Variant 8-9-Ig; BAv8-9-PIg18) AGQCSQNEYFDHLLRACIPCQLRCSSNTPPLTCQRYCNAGVTNSVKGTNAERKSSVECPPSPAPPVAGPSVFLFPPKPKDTLMISRTPEVTCVVVDVSHEDPEVQFNWYVDGVEVHNAKTKPREEQFNSTFRVVSVLTVVHQDWLNGKEYKCKVSNKGLPAPIEKTISKTKGQPREPQVYTLPPSREEMTKNQVSLTCLVKGFYPSDISVEWESNGQPENNYKTTPPMLDSDGSFFLYSKLTVDKSRWQQGNVFSCSVMHEALHNHYTQKSLSLSPGK
– | – | 0.2 | 2.2 | – | – | 0.4 | 4.7 | Variant 50238475-Ig (Fc fusion, human, domain: Fc; also called Parent 9; Variant 50238475-PIg18) AGQCSQNEYYDHLIRACISCQIRCSSNNPPPICQRYCNAGVTNSVKGTNAERKSSVECPPSPAPPVAGPSVFLFPPKPKDTLMISRTPEVTCVVVDVSHEDPEVQFNWYVDGVEVHNAKTKPREEQFNSTFRVVSVLTVVHQDWLNGKEYKCKVSNKGLPAPIEKTISKTKGQPREPQVYTLPPSREEMTKNQVSLTCLVKGFYPSDISVEWESNGQPENNYKTTPPMLDSDGSFFLYSKLTVDKSRWQQGNVFSCSVMHEALHNHYTQKSLSLSPGK
0.62 | 1.6 | 0.6 | 7.6 | 0.1 | 224 | – | – | Variant BAv11-6-Ig (Fc fusion, human, domain: Fc; also called Variant 11-6-Ig; BAv11-6-PIg18) AGQCSQNEYFDRLLRACIPCQVRCSSNTPPLTCQRYCNAGVTNSVKGTNAERKSSVECPPSPAPPVAGPSVFLFPPKPKDTLMISRTPEVTCVVVDVSHEDPEVQFNWYVDGVEVHNAKTKPREEQFNSTFRVVSVLTVVHQDWLNGKEYKCKVSNKGLPAPIEKTISKTKGQPREPQVYTLPPSREEMTKNQVSLTCLVKGFYPSDISVEWESNGQPENNYKTTPPMLDSDGSFFLYSKLTVDKSRWQQGNVFSCSVMHEALHNHYTQKSLSLSPGK
– | – | 0.00024 | 1.3 | – | – | – | – | BAv66-Ig (Fc fusion, human, domain: Fc; also called Variant BAv66-Ig) AGQCSQNEYFDHLIRACIPCQGRCSSNTPPLTCQRYCNAGVTNSVKGTNAERKSSVECPPSPAPPVAGPSVFLFPPKPKDTLMISRTPEVTCVVVDVSHEDPEVQFNWYVDGVEVHNAKTKPREEQFNSTFRVVSVLTVVHQDWLNGKEYKCKVSNKGLPAPIEKTISKTKGQPREPQVYTLPPSREEMTKNQVSLTCLVKGFYPSDISVEWESNGQPENNYKTTPPMLDSDGSFFLYSKLTVDKSRWQQGNVFSCSVMHEALHNHYTQKSLSLSPGK
